{"source": "paper PMC10786891", "about": "“Massively parallel profiling of RNA-targeting CRISPR-Cas13d”", "target": "T1, EsCas13d, nuclease-dead (Eubacterium siraeum, UniProt B0MS50, R295A;H300A;R849A;H854A)", "T1 sequence": "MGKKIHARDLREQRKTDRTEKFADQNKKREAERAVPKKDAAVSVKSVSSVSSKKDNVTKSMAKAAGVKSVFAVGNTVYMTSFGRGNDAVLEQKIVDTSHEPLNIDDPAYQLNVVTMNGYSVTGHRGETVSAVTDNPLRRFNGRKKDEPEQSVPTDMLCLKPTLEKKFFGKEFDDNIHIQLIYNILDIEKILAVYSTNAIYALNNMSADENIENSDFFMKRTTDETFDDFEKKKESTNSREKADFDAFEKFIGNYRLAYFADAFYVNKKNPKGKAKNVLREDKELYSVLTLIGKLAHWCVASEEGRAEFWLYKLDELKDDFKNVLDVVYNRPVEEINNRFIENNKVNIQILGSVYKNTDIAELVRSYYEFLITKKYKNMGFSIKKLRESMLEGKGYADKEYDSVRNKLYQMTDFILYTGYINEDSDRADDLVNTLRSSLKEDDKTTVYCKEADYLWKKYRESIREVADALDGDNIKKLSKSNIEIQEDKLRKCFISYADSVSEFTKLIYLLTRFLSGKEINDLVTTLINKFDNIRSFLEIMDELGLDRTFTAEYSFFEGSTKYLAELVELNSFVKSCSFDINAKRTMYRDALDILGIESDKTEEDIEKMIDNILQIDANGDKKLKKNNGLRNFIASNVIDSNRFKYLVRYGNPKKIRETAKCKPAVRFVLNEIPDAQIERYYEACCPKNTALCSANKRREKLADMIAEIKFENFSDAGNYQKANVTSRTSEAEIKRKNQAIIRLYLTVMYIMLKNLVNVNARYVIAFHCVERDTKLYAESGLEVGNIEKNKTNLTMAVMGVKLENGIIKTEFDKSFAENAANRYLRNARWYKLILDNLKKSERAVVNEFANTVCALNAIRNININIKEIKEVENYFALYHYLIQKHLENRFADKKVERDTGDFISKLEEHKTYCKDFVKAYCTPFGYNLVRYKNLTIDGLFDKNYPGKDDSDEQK", "assay": "crRNA (strand 1, pre-loaded); Mg2+; 40 mM Tris-HCl pH 7.5, 150 mM NaCl, 6 mM MgCl2, 1 mM DTT, 0.1% Tween-20, 0.2 mg/ml BSA; 25 C; 10 min per concentration, then washed", "conditions": "tags: His6-TwinStrep-SUMO cleaved; N-terminal SNAP kept (SNAP-Surface 488); label: 3' end held by stalled T7 RNA polymerase", "data": [{"binder": "target 1 insA 3' of 11,insU 3' of 6 (mixed) RNA 1: CACCCGUGCAAAAAUGCAGGGGUCUAAAACUGAGCGGAUAACCUCUCUAUGG RNA 2: GGGAAUGGAUCCACAUCUACGAAUUCGUACCAUAGAGAGGUAUAUCCUGCUCACCGAGAUCGGAAGAGCACACGU", "values": [{"measurement": "Kd", "value": "18.2 ± 0.7", "unit": "nM"}]}, {"binder": "target 1 insG 3' of 3,insC 3' of 3 (mixed) RNA 1: CACCCGUGCAAAAAUGCAGGGGUCUAAAACUGAGCGGAUAACCUCUCUAUGG RNA 2: GGGAAUGGAUCCACAUCUACGAAUUCGUACCAUAGAGAGGUUAUCCGCUGCCACCGAGAUCGGAAGAGCACACGU", "values": [{"measurement": "Kd", "value": "11.4 ± 0.4", "unit": "nM"}]}, {"binder": "target 1 insU 3' of 21,insG 3' of 19 (mixed) RNA 1: CACCCGUGCAAAAAUGCAGGGGUCUAAAACUGAGCGGAUAACCUCUCUAUGG RNA 2: GGGAAUGGAUCCACAUCUACGAAUUCGUACCUAUGAGAGAGGUUAUCCGCUCACCGAGAUCGGAAGAGCACACGU", "values": [{"measurement": "Kd", "value": "73 ± 9", "unit": "nM"}]}, {"binder": "target 1 insU 3' of 12,insG 3' of 7 (mixed) RNA 1: CACCCGUGCAAAAAUGCAGGGGUCUAAAACUGAGCGGAUAACCUCUCUAUGG RNA 2: GGGAAUGGAUCCACAUCUACGAAUUCGUACCAUAGAGAGGUUUAUCGCGCUCACCGAGAUCGGAAGAGCACACGU", "values": [{"measurement": "Kd", "value": "6.8 ± 0.4", "unit": "nM"}]}, {"binder": "target 1 A1U,C22U (mixed) RNA 1: CACCCGUGCAAAAAUGCAGGGGUCUAAAACUGAGCGGAUAACCUCUCUAUGG RNA 2: GGGAAUGGAUCCACAUCUACGAAUUCGUAUCAUAGAGAGGUUAUCCGCUCUCCGAGAUCGGAAGAGCACACGU", "values": [{"measurement": "Kd", "value": "17 ± 2.6", "unit": "nM"}]}, {"binder": "target 1 insC 3' of 19,insU 3' of 2 (mixed) RNA 1: CACCCGUGCAAAAAUGCAGGGGUCUAAAACUGAGCGGAUAACCUCUCUAUGG RNA 2: GGGAAUGGAUCCACAUCUACGAAUUCGUACCAUCAGAGAGGUUAUCCGCUCUACCGAGAUCGGAAGAGCACACGU", "values": [{"measurement": "Kd", "value": "32.7 ± 2.9", "unit": "nM"}]}, {"binder": "target 1 C4U,U10G (mixed) RNA 1: CACCCGUGCAAAAAUGCAGGGGUCUAAAACUGAGCGGAUAACCUCUCUAUGG RNA 2: GGGAAUGGAUCCACAUCUACGAAUUCGUACCAUAGAGAGGUGAUCCGUUCACCGAGAUCGGAAGAGCACACGU", "values": [{"measurement": "Kd", "value": "18.5 ± 1.9", "unit": "nM"}]}, {"binder": "target 1 G13C (mixed) RNA 1: CACCCGUGCAAAAAUGCAGGGGUCUAAAACUGAGCGGAUAACCUCUCUAUGG RNA 2: GGGAAUGGAUCCACAUCUACGAAUUCGUACCAUAGAGACGUUAUCCGCUCACCGAGAUCGGAAGAGCACACGU", "values": [{"measurement": "Kd", "value": "62 ± 16", "unit": "nM"}]}, {"binder": "target 1 C2G,C6A (mixed) RNA 1: CACCCGUGCAAAAAUGCAGGGGUCUAAAACUGAGCGGAUAACCUCUCUAUGG RNA 2: GGGAAUGGAUCCACAUCUACGAAUUCGUACCAUAGAGAGGUUAUCAGCUGACCGAGAUCGGAAGAGCACACGU", "values": [{"measurement": "Kd", "value": "4.49 ± 0.17", "unit": "nM"}]}, {"binder": "target 1 insG 3' of 22,insG 3' of 9 (mixed) RNA 1: CACCCGUGCAAAAAUGCAGGGGUCUAAAACUGAGCGGAUAACCUCUCUAUGG RNA 2: GGGAAUGGAUCCACAUCUACGAAUUCGUACGCAUAGAGAGGUUAGUCCGCUCACCGAGAUCGGAAGAGCACACGU", "values": [{"measurement": "Kd", "value": "28.2 ± 1.8", "unit": "nM"}]}, {"binder": "target 1 U11A,G17A (mixed) RNA 1: CACCCGUGCAAAAAUGCAGGGGUCUAAAACUGAGCGGAUAACCUCUCUAUGG RNA 2: GGGAAUGGAUCCACAUCUACGAAUUCGUACCAUAAAGAGGAUAUCCGCUCACCGAGAUCGGAAGAGCACACGU", "values": [{"measurement": "Kd", "value": "91 ± 13", "unit": "nM"}]}, {"binder": "target 1 C7A,G13A (mixed) RNA 1: CACCCGUGCAAAAAUGCAGGGGUCUAAAACUGAGCGGAUAACCUCUCUAUGG RNA 2: GGGAAUGGAUCCACAUCUACGAAUUCGUACCAUAGAGAAGUUAUACGCUCACCGAGAUCGGAAGAGCACACGU", "values": [{"measurement": "Kd", "value": "10.8 ± 0.7", "unit": "nM"}]}, {"binder": "target 1 U8G,G13A (mixed) RNA 1: CACCCGUGCAAAAAUGCAGGGGUCUAAAACUGAGCGGAUAACCUCUCUAUGG RNA 2: GGGAAUGGAUCCACAUCUACGAAUUCGUACCAUAGAGAAGUUAGCCGCUCACCGAGAUCGGAAGAGCACACGU", "values": [{"measurement": "Kd", "value": "12.6 ± 0.9", "unit": "nM"}]}, {"binder": "target 1 A1C,G13C (mixed) RNA 1: CACCCGUGCAAAAAUGCAGGGGUCUAAAACUGAGCGGAUAACCUCUCUAUGG RNA 2: GGGAAUGGAUCCACAUCUACGAAUUCGUACCAUAGAGACGUUAUCCGCUCCCCGAGAUCGGAAGAGCACACGU", "values": [{"measurement": "Kd", "value": "47 ± 11", "unit": "nM"}]}, {"binder": "target 1 insG 3' of 10,insU 3' of 5 (mixed) RNA 1: CACCCGUGCAAAAAUGCAGGGGUCUAAAACUGAGCGGAUAACCUCUCUAUGG RNA 2: GGGAAUGGAUCCACAUCUACGAAUUCGUACCAUAGAGAGGUUGAUCCGUCUCACCGAGAUCGGAAGAGCACACGU", "values": [{"measurement": "Kd", "value": "43 ± 11", "unit": "nM"}]}, {"binder": "target 1 U11C,G12C (mixed) RNA 1: CACCCGUGCAAAAAUGCAGGGGUCUAAAACUGAGCGGAUAACCUCUCUAUGG RNA 2: GGGAAUGGAUCCACAUCUACGAAUUCGUACCAUAGAGAGCCUAUCCGCUCACCGAGAUCGGAAGAGCACACGU", "values": [{"measurement": "Kd", "value": "17.1 ± 2.1", "unit": "nM"}]}, {"binder": "target 1 insG 3' of 16,insA 3' of 3 (mixed) RNA 1: CACCCGUGCAAAAAUGCAGGGGUCUAAAACUGAGCGGAUAACCUCUCUAUGG RNA 2: GGGAAUGGAUCCACAUCUACGAAUUCGUACCAUAGAGGAGGUUAUCCGCUACACCGAGAUCGGAAGAGCACACGU", "values": [{"measurement": "Kd", "value": "17.7 ± 1.2", "unit": "nM"}]}, {"binder": "target 1 insC 3' of 9,insC 3' of 8 (mixed) RNA 1: CACCCGUGCAAAAAUGCAGGGGUCUAAAACUGAGCGGAUAACCUCUCUAUGG RNA 2: GGGAAUGGAUCCACAUCUACGAAUUCGUACCAUAGAGAGGUUACUCCCGCUCACCGAGAUCGGAAGAGCACACGU", "values": [{"measurement": "Kd", "value": "19.9 ± 1.4", "unit": "nM"}]}, {"binder": "target 1 C22U (mixed) RNA 1: CACCCGUGCAAAAAUGCAGGGGUCUAAAACUGAGCGGAUAACCUCUCUAUGG RNA 2: GGGAAUGGAUCCACAUCUACGAAUUCGUAUCAUAGAGAGGUUAUCCGCUCACCGAGAUCGGAAGAGCACACGU", "values": [{"measurement": "Kd", "value": "16.6 ± 1.1", "unit": "nM"}]}, {"binder": "target 1 insG 3' of 21,insG 3' of 9 (mixed) RNA 1: CACCCGUGCAAAAAUGCAGGGGUCUAAAACUGAGCGGAUAACCUCUCUAUGG RNA 2: GGGAAUGGAUCCACAUCUACGAAUUCGUACCGAUAGAGAGGUUAGUCCGCUCACCGAGAUCGGAAGAGCACACGU", "values": [{"measurement": "Kd", "value": "70 ± 17", "unit": "nM"}]}, {"binder": "target 1 U10A,G17A (mixed) RNA 1: CACCCGUGCAAAAAUGCAGGGGUCUAAAACUGAGCGGAUAACCUCUCUAUGG RNA 2: GGGAAUGGAUCCACAUCUACGAAUUCGUACCAUAAAGAGGUAAUCCGCUCACCGAGAUCGGAAGAGCACACGU", "values": [{"measurement": "Kd", "value": "55 ± 5", "unit": "nM"}]}, {"binder": "target 1 G12C,G13A (mixed) RNA 1: CACCCGUGCAAAAAUGCAGGGGUCUAAAACUGAGCGGAUAACCUCUCUAUGG RNA 2: GGGAAUGGAUCCACAUCUACGAAUUCGUACCAUAGAGAACUUAUCCGCUCACCGAGAUCGGAAGAGCACACGU", "values": [{"measurement": "Kd", "value": "9.5 ± 0.5", "unit": "nM"}]}, {"binder": "target 1 U19C,A20C (mixed) RNA 1: CACCCGUGCAAAAAUGCAGGGGUCUAAAACUGAGCGGAUAACCUCUCUAUGG RNA 2: GGGAAUGGAUCCACAUCUACGAAUUCGUACCCCAGAGAGGUUAUCCGCUCACCGAGAUCGGAAGAGCACACGU", "values": [{"measurement": "Kd", "value": "94 ± 29", "unit": "nM"}]}, {"binder": "target 1 A1U,U11C (mixed) RNA 1: CACCCGUGCAAAAAUGCAGGGGUCUAAAACUGAGCGGAUAACCUCUCUAUGG RNA 2: GGGAAUGGAUCCACAUCUACGAAUUCGUACCAUAGAGAGGCUAUCCGCUCUCCGAGAUCGGAAGAGCACACGU", "values": [{"measurement": "Kd", "value": "9.3 ± 1", "unit": "nM"}]}]}
